The record followed here is US20230029635A1 (US Dept. of Health and Human Services, published 2023).

The term Kd denotes the constant that tells how readily two partners part at equilibrium. Lower therefore signals tighter binding.

The target in assay [1] is T1, hFc-hC3d (human, UniProt P01024 1002-1303).
T1 construct: range 1002-1303; expressed in HEK293F cells, purified on Protein A; also called hFc-hC3d fusion protein; not shown: human Fc of vector pCEP4-hFc
As to the kind of experiment: SPR (Biacore X100), hFc-hC3d captured by anti-human IgG CH2 mAb, Fab injected, 1:1 Langmuir. The method, then:
(§1) Surface plasmon resonance (SPR) for the measurement of kinetic and thermodynamic parameters of the binding of purified antibodies to hC3d or mC3d antigens was performed on a Biacore X100 instrument using Biacore reagents and software (GE Healthcare, Chicago, Ill.). A mouse anti-human IgG CH2 mAb was immobilized on a CM5 sensor chip using reagents and instructions supplied with the Human Antibody Capture Kit (GE Healthcare). hFc-hC3d and hFc-mC3d fusion proteins were captured at a density not exceeding 400 RU. Each sensor chip included an empty flow cell for instantaneous background depletion. All binding assays used 1×HBS-EP+ running buffer (10 mM HEPES, 150 mM NaCl, 3 mM EDTA (pH 7.4), and 0.05% (v/v) surfactant P20) and a flow rate of 30 μL/min. All of the Fabs were injected at five different concentrations (dilution factor was 2), and the lowest concentration was tested in duplicates. The sensor chips were regenerated with 3 M MgCl₂ from the Human Antibody Capture Kit without any loss of binding capacity. Calculation of association (kₒₙ) and dissociation (koff) rate constants was based on a 1:1 Langmuir binding model. The equilibrium dissociation constant (KD) was calculated from koff/kₒₙ.

Assay [2] addresses T2, hFc-mC3d (mouse, UniProt P01027 1002-1303).
T2 construct: domain: C3d; also called hFc-mC3d fusion protein; not shown: human Fc of vector pCEP4-hFc
As to the kind of experiment: Table 3, column Mouse C3d; the SPR Kd on hFc-mC3d of Table 2. The method, then: as §1

The target in assay [3] is T1, hFc-hC3d. The assay is described as follows: Table 3, column Human C3d; rounded form of the SPR Kd on hFc-hC3d of Table 2. As for the experimental part: as §1
Assay [4] has as its target T2, hFc-mC3d. The assay is described as follows: SPR (Biacore X100), hFc-mC3d captured by anti-human IgG CH2 mAb, Fab injected, 1:1 Langmuir. As for the experimental part:
as §1
In general terms: SPR reads the build-up and loss of mass on a sensor chip optically.

Assay [5] has as its target T1, hFc-hC3d. As to the kind of experiment: Table 3, column Human C3d; the SPR Kd on hFc-hC3d of Table 2. The method, then:
as §1

Assay [6] deals with T2, hFc-mC3d. The assay is described as follows: Table 3, column Mouse C3d; rounded form of the SPR Kd on hFc-mC3d of Table 2. The method, then:
as §1

The target in assay [7] is T2, hFc-mC3d. As to the kind of experiment: SPR, hFc-mC3d captured by anti-human IgG CH2 mAb, Fab injected.
Assay [8] has as its target T3, Mouse C3b/iC3b/C3d deposited on zymosan particles (mouse, UniProt P01027 1002-1303, limits assumed).
T3 construct: also called Zymosan deposited C3b/iC3b/(C3d) mouse
The assay is described as follows: flow cytometry: His-tagged Fab at 5 µg/mL on zymosan particles opsonized with 50% mouse serum, mouse anti-6xHis Alexa Fluor 488. As for the experimental part: One million zymosan particles deposited with C3b/iC3b/C3d were added into one well of a V-bottom 96-well plate. Then 500 ng/100 μL of antibody was applied in each well at 37° C. for 1 h. After washing three times by phosphate buffered saline and TWEEN™ 20 (PBST), 100 μL of a 1:1000 dilution of a mouse anti-His tag mAb conjugated to ALEXA FLUOR™ 488 (Qiagen, Hilden, Germany) in 1% (w/v) bovine serum albumin (BSA)/DPBS was used to detect the antibody.
The cross reactivity of 5 μg/mL of antibodies of the invention with 6xHis tag to human, or cynomolgus, or mouse C3b/iC3b/C3d deposited on zymosan particles after incubation with 50% corresponding serum at 37° C. for 45 min was determined by flow cytometry with a secondary mouse anti-HIS mAb conjugated to ALEXA FLUOR™ 488. […] In Table 3, the relative level of affinity is shown by the number of plus or minus signs (e.g., +++=high affinity). m/h and r/h denote […], respectively, variable domains fused human constant domains; k, kappa light chain; λ, lambda light chain.
(Flow cytometry measures light scatter and fluorescence of single cells or particles in a stream.)

The target of assay [9] is T4, Jeko1 cell line deposited C3d (human, UniProt P01024 1002-1303, limits assumed).
T4 construct: domain: C3d; also called human C3d on JeKo-1 cells
T4 sequence (P01024 1002-1303 limits assumed): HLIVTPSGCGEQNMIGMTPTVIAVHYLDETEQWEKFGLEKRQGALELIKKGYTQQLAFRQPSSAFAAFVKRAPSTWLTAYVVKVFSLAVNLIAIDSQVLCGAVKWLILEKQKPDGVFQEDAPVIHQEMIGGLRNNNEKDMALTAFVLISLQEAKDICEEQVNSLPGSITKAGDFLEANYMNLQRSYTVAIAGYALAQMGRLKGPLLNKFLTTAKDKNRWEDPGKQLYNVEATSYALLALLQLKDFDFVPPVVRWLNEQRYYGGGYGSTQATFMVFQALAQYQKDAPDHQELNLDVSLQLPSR
The assay is described as follows: flow cytometry: Fab at 2.5 µg/mL on JeKo-1 cells opsonized with 10 µg/mL rituximab and incubated with 50% C5-depleted human serum for 2 h with 0.5 U/mL CR1 or for 24 h (C3b/iC3b decayed to C3d). The method, then:
FIG. 13 is a graph showing the binding activity of antibodies of the invention to different human C3 fragments. The binding of each chimeric rabbit/human Fab at 2.5 μg/mL to C3b/iC3b/(C3d), or C3d was determined by flow cytometry against JeKo-1 cells deposited with human C3 fragments after opsonization by 10 μg/mL rituximab (RTX) followed by incubation with 50% CS-depleted human serum for 2 h with or without 0.5 U/mL CR1 or 24 h. In the presence of CR1 or after treatment with serum for 24 h, most of C3 fragments had decayed from C3b/iC3b to C3d.
To deposit C3 fragments on zymosan, one hundred million of preactivated zymosan particles (Complement Technology, Inc.) were washed and then incubated with 50% pooled normal human complement serum (PNHCS) or normal BALB/c mouse or cynomolgus complement serum in 1 mL Dulbecco's phosphate-buffered saline (DPBS) at 37° C. for 1 h. For JeKo-1 cells, 10 μg/mL rituximab (RTX) was first used to opsonize cells followed by incubation with 50% CS-depleted PNHCS. To allow C3b/iC3b deposited on JeKo-1 cells to decay to C3d, the incubation time of cells with serum was prolonged to 24 h, or 0.5 U/mL CR1 (rhCD35, R&D Systems, Minneapolis, Minn.) was included during the incubation. […]

Numbering of substitutions follows the chain as printed.

T1 sequence (P01024 other isoform, or with tags, fused parts or gaps, form in doubt): as the sequence (P01024 1002-1303 limits assumed) above, with C9A counted along it
T3 sequence (P01027 1002-1303 limits assumed): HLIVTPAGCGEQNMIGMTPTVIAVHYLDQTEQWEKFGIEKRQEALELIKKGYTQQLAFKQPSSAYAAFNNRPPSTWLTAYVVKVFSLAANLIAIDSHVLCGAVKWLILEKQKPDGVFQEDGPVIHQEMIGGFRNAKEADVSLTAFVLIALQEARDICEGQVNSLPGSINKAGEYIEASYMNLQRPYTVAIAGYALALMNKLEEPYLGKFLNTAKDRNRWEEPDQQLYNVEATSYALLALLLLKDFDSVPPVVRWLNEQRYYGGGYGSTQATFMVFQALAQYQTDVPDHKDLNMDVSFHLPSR
T2 sequence (P01027 other isoform, or with tags, fused parts or gaps): as the sequence (P01027 1002-1303 limits assumed) above, with C9A counted along it

B1: 4S04 (Fab, V domains shown)
VH: QEQLKESGGRLVTPGTPLTLTCTASGFSLSTYAMIWVRQAPGKGLEYIGIISYGGSAYYASWAKGRFTISKTSTTVDLKITSPTTEDTATYFCARDRGFGYGYGIGYYGLDPWGPGTLVTVSS
VL: DGVMTQTPSSTSAAVEGTVTINCQASQSIGSYLSWYQQKPGQPPKLLIYQASKMASGVPSRFKGSGSGTQFTLTISNVQGEDAATYYCLGHYVGDWSFGAGTKVEIK
notes: Chimeric rabbit/human Fab, kappa, with 6xHis tag
For the molecule B1, in assay [1], the affinity, expressed as Kd, was 4.11 nM.

B2: MN66 (Fab, V domains shown)
VH: QSVEESGGRLVTPGTPLTLTCTVSGFSLSSYAMSWVRQAPGKGLEWIGIIYPNDITYYASWAKGRFTISKTSTTVDLKITSPTTEDTATYFCARVVSWPGYTTEYYFNIWGPGTLVTISS
VL: QFVLTQPQSVSGSLGQTVSMSCKCDSGNIDNYYVHWYQQHPGKAPTTVIYNDDQRPSGVPDRFSGSIDSTSNSASLTITGLLAEDEADYYCLSSVSSDNYVFGGGTQLTVTG
notes: Lambda
B2 had a Kd in assay [1] of 0.31 nM. Against the preceding molecule, the Kd is about 13-fold lower.

B3: 3N07 (Fab, V domains shown)
VH: QSLEESGGRLVTPGTPLTLTCTVSGFSLSRYTMAWVRQAPGKGLEYIGWIDSSGSTYYASWAKGRFTISKTSSTTVDLKMTSLTTEDTATYFCASGNDGGDPLYYGMDPWGPGTLVTVSS
VL: DGVMTQTPSSTSAAVGGTVTIKCQASQSIRSWLSWYQQKPGQPPKLLIYEASKLASGVPSRFKGSRSGTEYTLAISGVQREDAATYYCLGSIASDDTAFGAGTNVEIK
notes: Chimeric rabbit/human Fab, kappa, with 6xHis tag; also called Fab 3N07; 3N07 r/h-IgG1k
As to B3, the Kd in [2] is 132 nM; in [3], 3.1 nM; in [1], 3.1 nM; in [4], 132 nM.

B4: d301 (Fab, V domains shown)
VH: B3 VH with R30T, M33L, A34G, T56A, T71A, T81A, S82G, D98T
VL: DPVLTQTPSSTSAAVGGTVTIKCQASQNIGRWLAWYQQKPGQPPKLLIYRASDLASGVPSRFKGSGSGTQFTLTISGVQREDAATYYCLGSYSSSDSAFGGGTEVVVK
notes: Chimeric rabbit/human Fab, kappa, with 6xHis tag; also called Fab d301; d301 r/h-IgG1k
For the molecule B4, the Kd in assay [5] was determined as 0.99 nM; in assay [6] it was 23 nM; in assay [1], 0.99 nM; in [4] it was 22.9 nM.

B5: 3NS1 (Fab, V domains shown)
VH: QSVEESGGRLVTPGTPLTLTCTVSGFSLSNYIITWVRQAPGKGLEWIGMISTDGDTYYANWAKGRFTISKTSTTANLKITSPTTEDTATYFCARGLTNFFIWGPGTLVTVSS
VL: QPVLTQSPSVSAALGASAKLTCTLSSAHKTYSIGWYQQHQGEAPRFLMQLRRDGSYTKGTGVPDHFSGSSSGADRYLIIPNVQADDEADYYCGVDYDGGYVFGGGTQLTVTG
notes: Chimeric rabbit/human Fab, lambda, with 6xHis tag; also called 3NS1 r/h-IgG1λ
Regarding B5, the binding result in assay [7] is listed as “no binding”; in assay [8], “no binding (tested: 5 µg/mL)”; in assay [9] it was “binds”.

B6: 4S10 (Fab, V domains shown)
VH: B5 VH with G7R, F26I, S27D, N30S, Y31S, I32A, D55A, I68F, N76D, F100S
VL: QPVLTQSPSASAALGASAKLTCTLSSAHKTYTIAWYQQQPGESPRYLMLLKSDGSYTRGPGVPDRFSGSSSGADRYLIIPSVQADDEAGYYCGADYNGGYVFGGGTQLTVTG
notes: Chimeric rabbit/human Fab, lambda, with 6xHis tag
Consider B6, for which, in assay [7], the binding result is “no binding”.

B7: 3N02 (Fab, V domains shown)
VH: QKQLVESGGRLVTPGGSLTLTCTISGIDLNTYGMTWVRQAPGKGLEYIGIIVSSGNTYYANWAQGRFTISKTSTTVDLKMTSLTASDTATYFCARGLGRAYSSGYGMDGWGPGTLVTVSS
VL: DPVLTQTPSSTSAAVGGTVTIKCQASQNIYTSLAWYQQKPGQPPKLLIYGASNLASGVPSRFKGSRSGTEYTLTISGVEREDAATYYCLGSYTQIDTTFGGGTKLEIK
notes: Chimeric rabbit/human Fab (rabbit variable domains, human kappa constant domain) with 6xHis tag in SPR, zymosan ELISA and flow cytometry; also called 3N02 r/h-IgG1k
Regarding B7, the dissociation constant (Kd) in [3] was 13 nM; in [6], 98 nM; in [1] it was 13.3 nM; in assay [4], 97.6 nM.

B8: 3NS2 (Fab, V domains shown)
VH: QSVEESGGRLVTPGTPLTLTCTVSGIDLSSYSMGWVRQAPGKGLEWIGIIYNTGRIDYANWAKGRFTISKTSTTVDLKITSPTIGDTATYFCGRGYPGDIWGPGTLVTVSS
VL: DVVMTQTPSSVSAAVGGTVTIKCQASESIYSDLAWYQQKPGQRPKLLIYFASTLASGVPSRFKGSGSGTEYTLTISGVQREDAATYYCLGDYGNSWAFGAGTKVEIK
notes: as for B6
On to B8, for which the binding result is reported as “no binding” in assay [7] and “no binding (tested: 5 µg/mL)” in assay [8].

B9: 5S8 (Fab, V domains shown)
VH: QSVEESGGRLVTPGTPLTLTCTVSGFSLSSYAMTWVRQAPGKGLEWIGVIGTSGMRYYANWAKGRFTISKTSTTVDLKITSPTTEDTATYFCARANFYVGNDESTDAFDPWGPGTLVTVSS
VL: ALVMTQTPPSLSASVGETVRIRCLASEDIYNTISWYQQKPGKPPTLLIYGASNLKSGVPPRFSGSGSGTDYTLTIGGVQSEDAATYYCLGGYSYSSTGLTFGAGTKVEIK
notes: Chimeric rabbit/human Fab, kappa, with 6xHis tag in SPR, zymosan and JeKo-1 assays; also called Fab 5S8; 5S8 r/h-IgG1k
As to B9, the Kd stood at 3.4 nM in assay [3], 9 nM in assay [6], 3.35 nM in [1] and 9.04 nM in assay [4].

B10: 4S12 (Fab, V domains shown)
VH: QEQLVESGGRLVTPGTPLTLTCTVSGFSLSSYHMSWVRQAPGKGLEWIGIIYFTGDASYASWAKGRFTISKTSPTTVDLKITSPTTEDTATYFCARDTDWNSSRTIPFDPWGPGTLVTVSS
VL: SFVLTQPASVQVNLGQTVSLTCTADTLSRTYASWYQQKPGQAPVLLIYRDTSRPSGVPDRFSGSSSGNTATLTISGAQAGDEADYYCATSDGSGSSYQYVFGGGTQLTVTG
notes: as for B6
Regarding B10, the binding result in assay [7] was “no binding”; in assay [8], “no binding (tested: 5 µg/mL)”.

B11: 3NS3 (Fab, V domains shown)
VH: QSLEESGGGLVTPGTPLTLTCTVSGIDLSAYAMTWVRQAPGKGLEWIGMISTDGATYYASWAKGRFTISKTSTTADLTITSPTTEDTATYFCARGLTNFFIWGPGTLVTISS
VL: QPVLTQSPSASATLGSSAKLTCTLSSAHSTYTIAWYQQKQGESPRCLMYLKSDGSYTRGTGVPDRFSGSSSGADRYLIIPNVQADDEADYYCGADYSGGYLFGGGTQLTVTG
notes: as for B6
On to B11, for which the binding result in assay [7] is given as “no binding”; in assay [8], “no binding (tested: 5 µg/mL)”.
